For one substance, Kd results are on record in article PMC5510750.

This assay concerns the target IFN-λ3 H11 displayed on yeast. Put plainly: flow cytometry on cells.

pKd: −log10 of the molar value.

Chain of IL-10Rβ, monomeric soluble receptor (Q08334 20-220): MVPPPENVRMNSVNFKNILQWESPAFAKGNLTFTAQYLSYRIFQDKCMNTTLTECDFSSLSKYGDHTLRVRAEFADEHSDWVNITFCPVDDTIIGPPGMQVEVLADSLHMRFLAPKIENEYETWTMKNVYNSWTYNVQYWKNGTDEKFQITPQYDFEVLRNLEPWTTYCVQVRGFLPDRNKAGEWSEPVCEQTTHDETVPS

One may read the pKd as −log10 of the Kd, conventionally taken in molar units. Higher therefore signals a low Kd. The substance “IL-10Rβ, monomeric soluble receptor (from UniProt Q08334 20-220)” had a pKd of 6.70.
